Earlier results, collected in publication PMC4366142.

Molecular target: muscle voltage-gated sodium channel (UniProt P15390)
Chain of UniProt P15390 (P15390 whole entry): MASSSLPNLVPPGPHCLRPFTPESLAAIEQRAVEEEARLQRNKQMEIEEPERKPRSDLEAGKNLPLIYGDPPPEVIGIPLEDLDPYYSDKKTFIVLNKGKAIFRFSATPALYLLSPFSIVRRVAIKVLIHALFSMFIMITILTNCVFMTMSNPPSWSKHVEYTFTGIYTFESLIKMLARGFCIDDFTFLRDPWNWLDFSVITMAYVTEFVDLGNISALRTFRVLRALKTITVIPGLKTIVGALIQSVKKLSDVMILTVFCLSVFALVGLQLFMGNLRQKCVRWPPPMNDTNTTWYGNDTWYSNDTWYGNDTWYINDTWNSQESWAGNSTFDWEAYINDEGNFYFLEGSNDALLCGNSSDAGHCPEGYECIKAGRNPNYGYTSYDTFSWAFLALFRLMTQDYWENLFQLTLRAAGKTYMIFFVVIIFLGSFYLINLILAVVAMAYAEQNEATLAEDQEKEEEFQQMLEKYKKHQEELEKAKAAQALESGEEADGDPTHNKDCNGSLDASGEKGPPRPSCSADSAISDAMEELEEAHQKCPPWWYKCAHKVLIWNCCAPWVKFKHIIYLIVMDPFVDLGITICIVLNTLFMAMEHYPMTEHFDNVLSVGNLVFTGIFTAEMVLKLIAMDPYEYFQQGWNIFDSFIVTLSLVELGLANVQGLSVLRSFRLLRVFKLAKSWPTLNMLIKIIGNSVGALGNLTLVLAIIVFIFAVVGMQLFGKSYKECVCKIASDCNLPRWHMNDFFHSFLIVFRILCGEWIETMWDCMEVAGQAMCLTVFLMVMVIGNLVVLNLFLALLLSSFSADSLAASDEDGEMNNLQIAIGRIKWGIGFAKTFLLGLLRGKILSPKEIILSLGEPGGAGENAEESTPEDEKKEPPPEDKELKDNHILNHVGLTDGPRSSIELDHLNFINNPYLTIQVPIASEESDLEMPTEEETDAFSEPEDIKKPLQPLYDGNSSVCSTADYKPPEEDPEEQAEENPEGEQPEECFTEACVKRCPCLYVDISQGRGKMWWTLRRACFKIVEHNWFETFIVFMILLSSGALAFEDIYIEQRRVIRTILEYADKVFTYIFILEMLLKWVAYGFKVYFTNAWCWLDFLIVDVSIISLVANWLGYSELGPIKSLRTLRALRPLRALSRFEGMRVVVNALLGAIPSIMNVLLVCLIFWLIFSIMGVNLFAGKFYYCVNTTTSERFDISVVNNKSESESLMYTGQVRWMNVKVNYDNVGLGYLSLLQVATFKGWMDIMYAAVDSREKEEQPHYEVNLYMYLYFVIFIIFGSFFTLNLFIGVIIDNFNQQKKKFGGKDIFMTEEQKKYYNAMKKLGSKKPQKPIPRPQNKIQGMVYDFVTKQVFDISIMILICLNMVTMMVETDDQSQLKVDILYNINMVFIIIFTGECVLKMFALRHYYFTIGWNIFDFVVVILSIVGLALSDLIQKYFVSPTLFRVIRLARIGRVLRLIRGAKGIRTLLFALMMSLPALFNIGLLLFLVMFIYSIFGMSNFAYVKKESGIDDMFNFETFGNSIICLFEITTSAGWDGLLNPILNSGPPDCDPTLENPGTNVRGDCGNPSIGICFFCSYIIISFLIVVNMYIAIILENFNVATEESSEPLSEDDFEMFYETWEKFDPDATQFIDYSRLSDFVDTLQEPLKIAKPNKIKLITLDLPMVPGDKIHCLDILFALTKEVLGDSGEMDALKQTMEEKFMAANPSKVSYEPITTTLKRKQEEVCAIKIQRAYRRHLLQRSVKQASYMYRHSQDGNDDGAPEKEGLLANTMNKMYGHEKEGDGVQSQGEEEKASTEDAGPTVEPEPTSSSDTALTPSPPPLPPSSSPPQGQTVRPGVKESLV

μ-conotoxin GIIIA (from UniProt P01523)
Kd: 0.025 µM
